Experimental data reported in publication PMC5777972 (Protein & Cell, 2017).
Blank lines part the entries; values can stand above or below the binder they belong to.

Columns and labels:
[1] = target: T1, PD-L1 extracellular domain fragment (from F19 to R238) (Homo sapiens, UniProt Q9NZQ7); test: SPR; BIAcore T100, CM5 chip, about 1000 RU of PD-L1 immobilised, scFv flowed at 5 nM to 80 nM, 25 °C, HBS-EP (150 mM NaCl, 10 mM HEPES, pH 7.4, 0.005% Tween-20), 1:1 Langmuir model; settings: both partners purified
T1 construct: PD-L1 extracellular domain fragment, F19 to R238; probably the start methionine of the E. coli construct (surmise); also called two-Ig-domain PD-L1
T1 sequence (Q9NZQ7 19-238): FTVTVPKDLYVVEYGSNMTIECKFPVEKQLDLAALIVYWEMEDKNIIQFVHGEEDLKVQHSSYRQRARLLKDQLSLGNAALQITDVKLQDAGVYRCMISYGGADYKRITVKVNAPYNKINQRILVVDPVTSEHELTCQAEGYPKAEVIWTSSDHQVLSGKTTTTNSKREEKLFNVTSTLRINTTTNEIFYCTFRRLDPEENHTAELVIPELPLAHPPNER

two-Ig-domain PD-L1 = target: T2, two-Ig-domain PD-L1 (Homo sapiens, UniProt Q9NZQ7); test: SPR; PD-L1 protein immobilised on the chip, scFvs of the anti-PD-L1 MAbs flowed through; BIAcore T100; settings: both partners purified
T2 construct: PD-L1, the two Ig domains (IgV and the second Ig domain)
T2 sequence (Q9NZQ7 19-238): as above

koff [1]: 7.53e-05 s⁻¹
kon [1]: 1.61e+06 M⁻¹ s⁻¹
B1: avelumab-scFv (scFv, V domains shown)
VH: EVQLLESGGGLVQPGGSLRLSCAASGFTFSSYIMMWVRQAPGKGLEWVSSIYPSGGITFYADTVKGRFTISRDNSKNTLYLQMNSLRAEDTAVYYCARIKLGTVTTVDYWGQGTLVTVSS
VL: QSALTQPASVSGSPGQSITISCTGTSSDVGGYNYVSWYQQHPGKAPKLMIYDVSNRPSGVSNRFSGSKSGNTASLTISGLQAEDEADYYCSSYTSSSTRVFGTGTKVTVL
notes: VL of avelumab; avelumab-scFv 'obtained as durvalumab-scFv'; VH of avelumab; Order VL-linker-VH is stated for durvalumab-scFv only; also called avalumab-scFv

Kd (two-Ig-domain PD-L1): 0.0467 nM
B2: scFv of avelumab (scFv, V domains shown)
VH: B1 VH
VL: B1 VL
notes: VH and VL of avelumab as in the cited complex with PD-L1, PDB 5GRJ; The parent antibody is IgG1; the scFv was used for SPR; Its preparation may be told in the supplementary information
